Here are results for four molecules from US20070072177A1.

B1: CR04-144 (antibody)
VH: AMAQVQLQELGGGVVQPGRSLRLSCAASGFTFGSYGMHWVRQAPGKGLEWVATISYDGSIKDYADSEKGRFTISRDNSKNTLYLQMNSLRAEDTAVYYCAKGGKTGEFDYWGQGTLVTVSSGTGGSGGTGSGTGGSTDIQLTQSPSSLSASVGDRVTITCRASQGISSYLAWYQQKPGKGPKLLIYAASTLQSGVPSRFSGSGSGTDFSLTISSLQPEDLATYYCQQYDSYPLTFGGGTKVEIKRAAA
VL: AMAQVQLQELGGGVVQPGRSLRLSCAASGFTFGSYGMHWVRQAPGKGLEWVATISYDGSIKDYADSEKGRFTISRDNSKNTLYLQMNSLRAEDTAVYYCAKGGKTGEFDYWGQGTLVTVSSGTGGSGGTGSGTGGSTDIQLTQSPSSLSASVGDRVTITCRASQGISSYLAWYQQKPGKGPKLLIYAASTLQSGVPSRFSGSGSGTDFSLTISSLQPEDLATYYCQQYDSYPLTFGGGTKVEIKRAAA
B2: CR04-108 (antibody)
VH: AMAEVQLVQSGGGLVQPGGSLRLSCAASGFTFSSYGMHWVRQAPGKGLEWVAVILYDGSDKFYADSVKGRFTISRDNSKDTLYLQMNSLRAEDTAVYYCAKFMIVADDAFDIWGQGTMVTVSSGTGGSGGTGSGTGGSTDIQLTQSPSSLSASVGDRVTITCRASQGISSHLVWYQQKPGKAPKSLIYAASSLQSGVPSRFSGSESATDFTLTISSLQPEDFATYYCQQYYSYPITFGQGTRLEIKRAAA
VL: AMAEVQLVQSGGGLVQPGGSLRLSCAASGFTFSSYGMHWVRQAPGKGLEWVAVILYDGSDKFYADSVKGRFTISRDNSKDTLYLQMNSLRAEDTAVYYCAKFMIVADDAFDIWGQGTMVTVSSGTGGSGGTGSGTGGSTDIQLTQSPSSLSASVGDRVTITCRASQGISSHLVWYQQKPGKAPKSLIYAASSLQSGVPSRFSGSESATDFTLTISSLQPEDFATYYCQQYYSYPITFGQGTRLEIKRAAA
B3: CR04-140 (antibody)
VH: AMAQMQLVQSGGGVVQPGRSLRLSCAASGFTFSSYGMHWVRQAPGKGLEWVAVILYDGSNKYYADSVKGRFTISRDNSKNALYLQMNSLRAEDTAVYYCAKVTNPGDAFDIWGQGTMVTVSSGTGGSGGTGSGTGGSTDIQMTQSPSSLSASVGDRVTITCRASQGISSALAWYQQKPGKAPKLLIYDASSLESGVPSRFSGSGSGTDFTLTISSLQPEDFATYYCQQFNSYPLTFGGGTKVEIKRAAA
VL: AMAQMQLVQSGGGVVQPGRSLRLSCAASGFTFSSYGMHWVRQAPGKGLEWVAVILYDGSNKYYADSVKGRFTISRDNSKNALYLQMNSLRAEDTAVYYCAKVTNPGDAFDIWGQGTMVTVSSGTGGSGGTGSGTGGSTDIQMTQSPSSLSASVGDRVTITCRASQGISSALAWYQQKPGKAPKLLIYDASSLESGVPSRFSGSGSGTDFTLTISSLQPEDFATYYCQQFNSYPLTFGGGTKVEIKRAAA
B4: CR04-120 (antibody)
VH: AMAEVQLVQSGGGLVQPGRSLRLSCAASGFTFSTYGMHWVRQAPGKGLEWVATISYDGSIKDYADSEKGRFTISRDNSKNTLYLQMNSLRAEDTAVYYCAKGGKTGEFDYWGQGTLVTVSSGTGGSGGTGSGTGGSTDIQLTQSPSTLSASVGDRVTITCRASQGINSYLAWYQQEPGKAPKLLIYAASTLQSGVPSRFSGSGSGTEFTLTISSLQPEDFATYYCQQLNSYPFTFGPGTKVDIKRAAA
VL: AMAEVQLVQSGGGLVQPGRSLRLSCAASGFTFSTYGMHWVRQAPGKGLEWVATISYDGSIKDYADSEKGRFTISRDNSKNTLYLQMNSLRAEDTAVYYCAKGGKTGEFDYWGQGTLVTVSSGTGGSGGTGSGTGGSTDIQLTQSPSTLSASVGDRVTITCRASQGINSYLAWYQQEPGKAPKLLIYAASTLQSGVPSRFSGSGSGTEFTLTISSLQPEDFATYYCQQLNSYPFTFGPGTKVDIKRAAA

The target in this experiment is rabies virus glycoprotein (G protein) of strain CVS-11 (rabies virus strain CVS-11) (UniProt O92284). The experiment in a line: cell-based or functional assay.
Sequence of rabies virus glycoprotein (G protein) of strain CVS-11 (rabies virus strain CVS-11) (O92284 20-524 limits assumed): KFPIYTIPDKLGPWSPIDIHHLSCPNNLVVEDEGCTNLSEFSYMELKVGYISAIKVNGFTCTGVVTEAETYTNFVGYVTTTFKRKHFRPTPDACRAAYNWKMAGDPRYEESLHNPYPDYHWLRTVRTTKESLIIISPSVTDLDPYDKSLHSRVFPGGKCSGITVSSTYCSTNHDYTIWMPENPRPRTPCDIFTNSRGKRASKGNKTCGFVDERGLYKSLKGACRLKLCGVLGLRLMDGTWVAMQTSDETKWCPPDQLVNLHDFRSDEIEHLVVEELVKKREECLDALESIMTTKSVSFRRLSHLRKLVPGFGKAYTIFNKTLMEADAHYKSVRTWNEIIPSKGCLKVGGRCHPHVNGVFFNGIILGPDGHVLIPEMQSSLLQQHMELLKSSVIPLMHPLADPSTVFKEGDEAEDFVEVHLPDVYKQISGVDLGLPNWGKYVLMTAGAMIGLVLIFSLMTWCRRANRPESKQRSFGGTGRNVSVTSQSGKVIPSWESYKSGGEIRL
In turn, B1 gave a Neutralizing potency (modified RFFIT) of 6250 IU/mg.

For the molecule B2, the Neutralizing potency (modified RFFIT) worked out at 4870 IU/mg.

For the molecule B3, the Neutralizing potency (modified RFFIT) turned out to be 478 IU/mg.

Take B4: the Neutralizing potency (modified RFFIT) was determined as 4940 IU/mg.
